This passage reports Kd results from patent US20190367626A1.

This assay deals with TRAILshort (UniProt P50591). In words: SPR. A general note: In SPR one partner is held on a chip, and binding of the other changes the refractive index at the surface.
Chain of TRAILshort (P50591 other isoform, or with tags, fused parts or gaps): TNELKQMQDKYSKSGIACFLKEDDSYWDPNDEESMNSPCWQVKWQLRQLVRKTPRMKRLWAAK

B1: HC0LC0 (antibody, human IgG1, kappa, V domains shown)
VH: QVQLQQSGPELVKPGASVKISCKASGYIFTNNDMNWVKQRPGQGLEWIGGIDPGDGRTKYNEKFKGKATLTADKFSNTVYMQLSSLTSENSAVYFCGRGGYEFGIDYWGQGTSVTVSS
VL: DIVMTQSPSSLSVSAGEKVTMSCKSSQSLLNSGNQKNSLAWYQQKPGRPPTLLISGASTRESGVPDRFTGSGSGTDFTLTISSVQAEDLAVYYCQNDHSFPLTFGAGTKLELKR
Take B1: the dissociation constant Kd (as a rule, the free concentration of one partner at which half of the binding sites on the other are occupied at equilibrium, for simple one-to-one binding) was found to be 3 pM.

B2: HC1LC3 (antibody, human IgG1, kappa, V domains shown)
VH: QVQLVQSGAEVKKPGATVKISCKVSGYIFTNNDMNWVQQAPGKGLEWMGGIDPGDGRTKYNEKFKGRVTITADESTSTAYMELSSLRSEDTAVYYCGRGGYEFGIDYWGQGTLVTVSS
VL: DIVMTQSPDSLAVSLGERATINCKSSQSLLNSGNQKNSLAWYQQRPGHPPKLLLYGASTRESGVPDRFSGSGSGTDFTLTISSLQAEDVAVYYCQNDHSFPLTFGGGTKVEIKR
B2 came in with a Kd of 10 pM. This Kd is about 3.3-fold higher than that of the molecule before.

B3: HC4LC3 (antibody, human IgG1, kappa, V domains shown)
VH: QVQLVESGAEVKKPGASVKVSCKVSGYIFTNNDMNWVRQAPGEGLEWMGGIDPGDGRTKYNEKFKGRVTMTEDTSTDTAYMELSSLRSEDTAVYYCGRGGYEFGIDYWGQGTTVTVSS
VL: DIVMTQSPDSLAVSLGERATINCKSSQSLLNSGNQKNSLAWYQQRPGHPPKLLLYGASTRESGVPDRFSGSGSGTDFTLTISSLQAEDVAVYYCQNDHSFPLTFGGGTKVEIKR
With B3, the Kd is 31 pM.

B4: HC2LC3 (antibody, human IgG1, kappa, V domains shown)
VH: QVQLVQSGAEVKKPGASVKVSCKASGYIFTNNDMNWVRQAPGQGLEWMGGIDPGDGRTKYNEKFKGRVTMTRDTSTNTVYMELSSLTSEDTAVYFCGRGGYEFGIDYWGQGTTVTVSS
VL: DIVMTQSPDSLAVSLGERATINCKSSQSLLNSGNQKNSLAWYQQRPGHPPKLLLYGASTRESGVPDRFSGSGSGTDFTLTISSLQAEDVAVYYCQNDHSFPLTFGGGTKVEIKR
For B4, the Kd came to 3.8 pM.

B5: HC3LC3 (antibody, human IgG1, kappa, V domains shown)
VH: QVQLVQSGAEVKKPGSSVKVSCKSSGYIFTNNDMNWVRQAPGQGLDWMGGIDPGDGRTKYNEKFKGRVTISADIFSNTAYMELNSLTSEDTAVYFCGRGGYEFGIDYWGQGTTVTVSS
VL: DIVMTQSPDSLAVSLGERATINCKSSQSLLNSGNQKNSLAWYQQRPGHPPKLLLYGASTRESGVPDRFSGSGSGTDFTLTISSLQAEDVAVYYCQNDHSFPLTFGGGTKVEIKR
Molecule B5 yielded a Kd of 4.5 pM.
